Laboratory results reported in US20240270821A1, “GIP/GLP1/GCG TRI-RECEPTOR AGONISTS AND USES THEREOF” (priority 2023, published 2024).
Where a chain is given by its changes, count along the chain named.

B1: Example 903 (peptide)
chain: YXQGTFTSDXSKXLDKKAQXAFIEYLIEXGPSSGAPPPSGSEEE
modifications: synthetic construct; SITE 2: note = 2-Aminoisobutyric Acid; SITE 10: note = 3-(4-Pyridyl)-L-alanine; SITE 13: note = alpha-methyl-leucine; SITE 17: note = Lysine is chemically modified through conjugation of the epsilon-amino group of the Lysine side chain with (2-[2-(2-Amino-ethoxy)-ethoxy]-acetyl)
B2: Example 906 (peptide)
chain: B1 chain
modifications: synthetic construct; SITE 2: note = 2-Aminoisobutyric Acid; SITE 10: note = 3-(4-Pyridyl)-L-alanine; SITE 13: note = alpha-methyl-leucine; SITE 17: note = Lysine is chemically modified through conjugation of the epsilon-amino group of the Lysine side chain with (gamma-Glu)2-CO-(CH2)16-CO2H; SITE 20:
B3: Example 893 (SEQ ID NO: 899) (peptide)
chain: YXQGTFTSDXSQXLDKKAQXAFIEYLIEXGPSSGAPPPSGSGE
modifications: not fully specified; synthetic construct; SITE 2: note = 2-Aminoisobutyric Acid; SITE 10: note = 3-(4-Pyridyl)-L-alanine; SITE 13: note = alpha-methyl-leucine; SITE 17: note = Lysine is chemically modified through conjugation of the epsilon-amino group of the Lysine side chain with (gamma-Glu)2-CO-(CH2)16-CO2H; SITE 20:
B4: Example 928 (peptide)
chain: B3 chain with G42E
modifications: acylated lysine γGlu-C18 diacid; non-natural residues; C-terminal amide; synthetic construct; SITE 2: note = 2-Aminoisobutyric Acid; SITE 10: note = 3-(4-Pyridyl)-L-alanine; SITE 13: note = alpha-methyl-leucine; SITE 17: note = Lysine is chemically modified through conjugation of the epsilon-amino group of the Lysine side chain with D-Glutamic acid-(gamma-Glu)-CO-(CH2)16
B5: Example 930 (peptide)
chain: B3 chain with G42E
modifications: acylated Lys γGlu-(e)2-C18 diacid; non-natural residues; C-terminal amide; synthetic construct; SITE 2: note = 2-Aminoisobutyric Acid; SITE 10: note = 3-(4-Pyridyl)-L-alanine; SITE 13: note = alpha-methyl-leucine; SITE 17: note = Lysine is chemically modified through conjugation of the epsilon-amino group of the Lysine side chain with (gamma-Glu)-(D-Glutamic acid)2-CO-(CH2)
B6: Example 905 (peptide)
chain: B3 chain with Q12K, G42E
modifications: synthetic construct; SITE 2: note = 2-Aminoisobutyric Acid; SITE 10: note = 3-(4-Pyridyl)-L-alanine; SITE 13: note = alpha-methyl-leucine; SITE 17: note = Lysine is chemically modified through conjugation of the epsilon-amino group of the Lysine side chain with (gamma-Glu)2-CO-(CH2)16-CO2H; SITE 20:
B7: Example 931 (peptide)
chain: B3 chain with G42E
modifications: acylated Lys e-γGlu-e-C18 diacid; non-natural residues; C-terminal amide; synthetic construct; SITE 2: note = 2-Aminoisobutyric Acid; SITE 10: note = 3-(4-Pyridyl)-L-alanine; SITE 13: note = alpha-methyl-leucine; SITE 17: note = Lysine is chemically modified through conjugation of the epsilon-amino group of the Lysine side chain with D-Glutamic acid-(gamma-Glu)-D-Glutamic
B8: Example 929 (peptide)
chain: B3 chain with G42E
modifications: non-natural residues, γGlu-C18 diacid acyl on K, C-terminal amide; synthetic construct; SITE 2: note = 2-Aminoisobutyric Acid; SITE 10: note = 3-(4-Pyridyl)-L-alanine; SITE 13: note = alpha-methyl-leucine; SITE 17: note = Lysine is chemically modified through conjugation of the epsilon-amino group of the Lysine side chain with (D-Glutamic acid)2-(gamma-Glu)-CO-(CH2)
B9: Example 902 (peptide)
chain: B3 chain with Q12K, G42E
modifications: synthetic construct; SITE 2: note = 2-Aminoisobutyric Acid; SITE 10: note = 3-(4-Pyridyl)-L-alanine; SITE 13: note = alpha-methyl-leucine; SITE 17: note = Lysine is chemically modified through conjugation of the epsilon-amino group of the Lysine side chain with (2-[2-(2-Amino-ethoxy)-ethoxy]-acetyl)
B10: Example 907 (peptide)
chain: YXQGTFTSDXSKXLDKKAQXAFIEYLIEXGPSSGAPPPSGS
modifications: synthetic construct; SITE 2: note = 2-Aminoisobutyric Acid; SITE 10: note = 3-(4-Pyridyl)-L-alanine; SITE 13: note = alpha-methyl-leucine; SITE 17: note = Lysine is chemically modified through conjugation of the epsilon-amino group of the Lysine side chain with (gamma-Glu)2-CO-(CH2)16-CO2H; SITE 20:
B11: Example 910 (peptide)
chain: B10 chain with K12Q, Y25X, I27L, X29G
modifications: synthetic construct; SITE 2: note = 2-Aminoisobutyric Acid; SITE 10: note = 3-(4-Pyridyl)-L-alanine; SITE 13: note = alpha-methyl-leucine; SITE 17: note = Lysine is chemically modified through conjugation of the epsilon-amino group of the Lysine side chain with (2-[2-(2-Amino-ethoxy)-ethoxy]-acetyl)
B12: Example 923 (peptide)
chain: B10 chain with K12Q
modifications: non-natural residues; C18 diacid-e-γGlu-e on Lys; C-terminal amide; synthetic construct; SITE 2: note = 2-Aminoisobutyric Acid; SITE 10: note = 3-(4-Pyridyl)-L-alanine; SITE 13: note = alpha-methyl-leucine; SITE 17: note = Lysine is chemically modified through conjugation of the epsilon-amino group of the Lysine side chain with D-Glutamic acid-(gamma-Glu)-D-Glutamic
B13: Example 915 (peptide)
chain: B10 chain
modifications: non-natural residues, acylated Lys, C-terminal amide; synthetic construct; SITE 2: note = 2-Aminoisobutyric Acid; SITE 10: note = 3-(4-Pyridyl)-L-alanine; SITE 13: note = alpha-methyl-leucine; SITE 17: note = Lysine is chemically modified through conjugation of the epsilon-amino group of the Lysine side chain with (2-[2-(2-Amino-ethoxy)-ethoxy]-acetyl)
B14: Example 933 (peptide)
chain: B10 chain with K12X, K16X, Y25X, I27L, X29G
modifications: synthetic construct; SITE 2: note = 2-Aminoisobutyric Acid; SITE 10: note = 3-(4-Pyridyl)-L-alanine; SITE 12: note = L-ornithine; SITE 13: note = alpha-methyl-leucine; SITE 16: note = L-ornithine; SITE 17: note = Lysine is chemically modified through conjugation of the epsilon-amino group of the Lys
B15: Example 913 (peptide)
chain: B10 chain with X10F, K12Q, Y25X
modifications: non-natural residues; acylated Lys C18 diacid; C-term amide; synthetic construct; SITE 2: note = 2-Aminoisobutyric Acid; SITE 13: note = alpha-methyl-leucine; SITE 17: note = Lysine is chemically modified through conjugation of the epsilon-amino group of the Lysine side chain with (2-[2-(2-Amino-ethoxy)-ethoxy]-acetyl)-(gamma-Glu)-CO-(CH2) 16-CO2H; SITE 20: n
B16: Example 948 (peptide)
chain: B10 chain with K12Q, Y25X, X29G
modifications: Aib, 4Pal, Me4Pal, alpha-methyl-Leu, lipidated Lys, amide; synthetic construct; SITE 2: note = 2-Aminoisobutyric Acid; SITE 10: note = 3-(4-Pyridyl)-L-alanine; SITE 13: note = alpha-methyl-leucine; SITE 17: note = Lysine is chemically modified through conjugation of the epsilon-amino group of the Lysine side chain with (2-[2-(2-Amino-ethoxy)-ethoxy]-acetyl)
B17: Example 911 (peptide)
chain: B10 chain with K12Q, K16X, Y25X, I27L, X29G
modifications: acylated Lys AEEA-γGlu-C18 diacid; non-natural residues; C-terminal amide; synthetic construct; SITE 2: note = 2-Aminoisobutyric Acid; SITE 10: note = 3-(4-Pyridyl)-L-alanine; SITE 13: note = alpha-methyl-leucine; SITE 16: note = L-ornithine; SITE 17: note = Lysine is chemically modified through conjugation of the epsilon-amino group of the Lysine side chain with (2-[2-(2-
B18: Example 908 (peptide)
chain: B10 chain with X29G
modifications: synthetic construct; SITE 2: note = 2-Aminoisobutyric Acid; SITE 10: note = 3-(4-Pyridyl)-L-alanine; SITE 13: note = alpha-methyl-leucine; SITE 17: note = Lysine is chemically modified through conjugation of the epsilon-amino group of the Lysine side chain with (2-[2-(2-Amino-ethoxy)-ethoxy]-acetyl)

target: T1, human GIP receptor (human) (UniProt P48546); assay: cell-based or functional assay
T1 sequence (looked up): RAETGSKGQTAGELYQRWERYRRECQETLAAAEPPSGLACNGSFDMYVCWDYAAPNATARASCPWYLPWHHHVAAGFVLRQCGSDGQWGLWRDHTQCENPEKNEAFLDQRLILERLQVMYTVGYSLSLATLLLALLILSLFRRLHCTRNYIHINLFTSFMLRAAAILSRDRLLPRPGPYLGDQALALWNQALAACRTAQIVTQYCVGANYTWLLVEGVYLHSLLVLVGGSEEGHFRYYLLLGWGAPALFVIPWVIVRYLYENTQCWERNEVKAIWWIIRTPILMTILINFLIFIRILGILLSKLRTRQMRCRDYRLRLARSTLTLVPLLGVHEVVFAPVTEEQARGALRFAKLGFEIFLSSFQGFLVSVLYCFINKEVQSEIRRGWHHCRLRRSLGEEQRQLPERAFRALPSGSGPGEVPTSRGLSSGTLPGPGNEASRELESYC

| Binder | Relative cAMP EC50 [nM] | cAMP Rel EC50 (1% HSA) [nM] | cAMP Rel EC50 [nM] |
| --- | --- | --- | --- |
| B1 | 0.277 | 31.2 |  |
| B2 | 0.212 | 15.4 |  |
| B3 |  |  | 21.4 |
| B4 |  | 15.1 |  |
| B5 |  | 19.9 |  |
| B6 | 0.217 | 10.4 |  |
| B7 |  | 20.8 |  |
| B8 |  | 22.6 |  |
| B9 | 0.19 | 28.5 |  |
| B10 | 0.103 | 8.86 |  |
| B11 | 0.111 | 25.7 |  |
| B12 |  | 18.5 |  |
| B13 |  | 15.3 |  |
| B14 | 0.259 | 35.1 |  |
| B15 |  | 5.62 |  |
| B16 |  | 22.9 |  |
| B17 |  | 26.6 |  |
| B18 | 0.246 | 26.7 |  |

target: hGLP-1R (Homo sapiens, UniProt P43220); assay: cell-based or functional assay
Sequence (P43220 24-463): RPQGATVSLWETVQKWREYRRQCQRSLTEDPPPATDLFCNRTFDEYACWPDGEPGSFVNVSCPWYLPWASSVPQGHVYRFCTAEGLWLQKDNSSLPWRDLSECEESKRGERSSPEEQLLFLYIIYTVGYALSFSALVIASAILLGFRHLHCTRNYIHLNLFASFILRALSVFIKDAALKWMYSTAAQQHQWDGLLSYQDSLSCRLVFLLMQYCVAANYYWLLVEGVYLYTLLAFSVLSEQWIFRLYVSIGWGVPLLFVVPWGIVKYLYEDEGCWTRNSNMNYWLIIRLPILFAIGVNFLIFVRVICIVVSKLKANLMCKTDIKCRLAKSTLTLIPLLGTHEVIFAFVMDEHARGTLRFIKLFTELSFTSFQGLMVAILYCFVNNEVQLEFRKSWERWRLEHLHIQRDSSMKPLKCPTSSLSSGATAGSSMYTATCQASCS

| Binder | Relative cAMP EC50 [nM] | cAMP Rel EC50 (1% HSA) [nM] | cAMP Rel EC50 [nM] |
| --- | --- | --- | --- |
| B1 | 2.7 | 387 |  |
| B2 | 2.48 | 236 |  |
| B3 |  |  | 305 |
| B4 |  | 604 |  |
| B5 |  | 824 |  |
| B6 | 2.52 | 215 |  |
| B7 |  | 878 |  |
| B8 |  | 593 |  |
| B9 | 2.58 | 232 |  |
| B10 | 1.15 | 123 |  |
| B11 | 1.49 | 239 |  |
| B12 |  | 870 |  |
| B13 |  | 226 |  |
| B14 | 2.32 | 557 |  |
| B15 |  | 258 |  |
| B16 |  | 304 |  |
| B17 |  | 255 |  |
| B18 | 1.2 | 174 |  |

target: human glucagon receptor (human) (UniProt P47871); assay: cell-based or functional assay
Sequence (P47871 26-477): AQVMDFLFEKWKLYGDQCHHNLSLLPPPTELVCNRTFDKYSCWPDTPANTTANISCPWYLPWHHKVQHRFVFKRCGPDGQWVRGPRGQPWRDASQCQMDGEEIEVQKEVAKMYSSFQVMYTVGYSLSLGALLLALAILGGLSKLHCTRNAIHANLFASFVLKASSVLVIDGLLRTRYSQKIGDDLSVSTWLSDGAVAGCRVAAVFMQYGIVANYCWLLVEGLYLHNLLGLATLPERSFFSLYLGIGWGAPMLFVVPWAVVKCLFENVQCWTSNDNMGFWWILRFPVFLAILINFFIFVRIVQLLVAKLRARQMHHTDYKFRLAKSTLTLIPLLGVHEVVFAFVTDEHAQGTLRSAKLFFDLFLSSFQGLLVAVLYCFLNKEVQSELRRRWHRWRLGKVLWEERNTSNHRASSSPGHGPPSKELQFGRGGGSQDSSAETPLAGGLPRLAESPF

| Binder | Relative cAMP EC50 [nM] | cAMP Rel EC50 (1% HSA) [nM] | cAMP Rel EC50 [nM] |
| --- | --- | --- | --- |
| B1 | 12.9 | 1630 |  |
| B2 | 14.7 | 1170 |  |
| B3 |  |  | 508 |
| B4 |  | 1090 |  |
| B5 |  | 1700 |  |
| B6 | 12.3 | 1390 |  |
| B7 |  | 2300 |  |
| B8 |  | 2690 |  |
| B9 | 15.9 | 1360 |  |
| B10 | 5.79 | 1210 |  |
| B11 | 9.76 | 2640 |  |
| B12 |  | 1840 |  |
| B13 |  | 174 |  |
| B14 | 5.51 | 1530 |  |
| B15 |  | 1140 |  |
| B16 |  | 537 |  |
| B17 |  | 2390 |  |
| B18 | 8.11 | 980 |  |
